# Source: article PMC10598736, “Structural insights into Rad18 targeting by the SLF1 BRCT domains” (The Journal of Biological Chemistry, 2023)
# Square brackets hold non-standard residues; d marks the D form. Ends that are not written are not given here. Peptide text beside a SMILES is read from it. pS = N[C@@H](COP(=O)(O)O)C(=O)O
# T1: SLF1^tBRCT (residues 1–199), WT (Homo sapiens, UniProt Q9BQI6)
# T1 construct: The coding region for SLF1^tBRCT (residues 1–199) was optimized for expression in E. coli; made in house; host or cells: E. coli BL21 Rosetta (DE3)
# T1 sequence (Q9BQI6 1-199): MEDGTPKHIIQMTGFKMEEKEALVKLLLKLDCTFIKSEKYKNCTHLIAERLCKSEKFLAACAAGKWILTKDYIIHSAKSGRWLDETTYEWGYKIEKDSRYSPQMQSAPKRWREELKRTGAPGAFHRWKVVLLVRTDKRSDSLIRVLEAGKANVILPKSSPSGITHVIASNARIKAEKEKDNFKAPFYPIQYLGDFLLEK
# T2: SLF1 tandem BRCT repeat (SLF1^tBRCT), residues 1-199, wild type (UniProt Q9BQI6 1-199)
# T2 construct: SMC5/6 localization factor 1 (SLF1), tandem BRCT repeat at the N-terminus, residues 1-199; coding region optimized for E. coli and synthesized; also called WT; SMC5/6 localization factor 1 tBRCT; source: E. coli BL21 Rosetta (DE3), purified (Ni-NTA, heparin, gel filtration)
# T2 sequence (looked up): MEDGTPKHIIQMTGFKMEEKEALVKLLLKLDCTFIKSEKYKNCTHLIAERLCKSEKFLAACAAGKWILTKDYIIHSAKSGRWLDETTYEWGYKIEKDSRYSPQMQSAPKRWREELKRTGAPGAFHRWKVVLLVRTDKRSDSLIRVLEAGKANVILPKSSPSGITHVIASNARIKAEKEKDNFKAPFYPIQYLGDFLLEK
# T3: SLF1^tBRCT R50A (UniProt Q9BQI6 1-199, R50A)
# T3 construct: SMC5/6 localization factor 1 (SLF1), tandem BRCT repeat, residues 1-199, with R50A; also called R50A-substituted SLF1^tBRCT; source: E. coli BL21 Rosetta (DE3), purified (same protocol as the wild type)
# T3 sequence (looked up): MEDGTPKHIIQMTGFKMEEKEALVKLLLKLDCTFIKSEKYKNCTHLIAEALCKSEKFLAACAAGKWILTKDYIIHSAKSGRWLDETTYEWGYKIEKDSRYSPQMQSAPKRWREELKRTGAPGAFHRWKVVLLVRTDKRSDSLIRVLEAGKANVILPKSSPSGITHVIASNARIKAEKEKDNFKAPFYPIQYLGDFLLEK
# T4: SLF1^tBRCT K56A (UniProt Q9BQI6 1-199, K56A)
# T4 construct: SMC5/6 localization factor 1 (SLF1), tandem BRCT repeat, residues 1-199, with K56A; also called K56A-substituted SLF1^tBRCT; source: E. coli BL21 Rosetta (DE3), purified (same protocol as the wild type)
# T4 sequence (looked up): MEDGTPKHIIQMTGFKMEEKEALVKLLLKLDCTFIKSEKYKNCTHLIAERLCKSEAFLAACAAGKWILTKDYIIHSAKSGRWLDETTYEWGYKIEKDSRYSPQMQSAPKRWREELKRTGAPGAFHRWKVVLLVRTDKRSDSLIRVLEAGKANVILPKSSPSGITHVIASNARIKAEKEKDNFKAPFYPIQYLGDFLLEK
# T5: SLF1^tBRCT L142A (UniProt Q9BQI6 1-199, L142A)
# T5 construct: SMC5/6 localization factor 1 (SLF1), tandem BRCT repeat, residues 1-199, with L142A; source: E. coli BL21 Rosetta (DE3), purified (same protocol as the wild type)
# T5 sequence (looked up): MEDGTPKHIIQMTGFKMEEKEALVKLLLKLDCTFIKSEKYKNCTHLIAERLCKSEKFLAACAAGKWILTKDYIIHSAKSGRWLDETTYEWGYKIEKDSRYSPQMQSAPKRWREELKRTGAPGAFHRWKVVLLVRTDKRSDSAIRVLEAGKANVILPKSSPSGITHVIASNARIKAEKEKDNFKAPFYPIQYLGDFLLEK
# T6: SLF1^tBRCT I189A (UniProt Q9BQI6 1-199, I189A)
# T6 construct: SMC5/6 localization factor 1 (SLF1), tandem BRCT repeat, residues 1-199, with I189A; source: E. coli BL21 Rosetta (DE3), purified (same protocol as the wild type)
# T6 sequence (looked up): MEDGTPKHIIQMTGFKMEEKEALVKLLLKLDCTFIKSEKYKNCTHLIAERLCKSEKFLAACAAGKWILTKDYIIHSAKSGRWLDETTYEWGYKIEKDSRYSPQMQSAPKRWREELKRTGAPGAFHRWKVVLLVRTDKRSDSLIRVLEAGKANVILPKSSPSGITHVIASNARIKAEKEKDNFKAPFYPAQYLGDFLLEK
# Assays:
# [1] = molecular target: T1, SLF1^tBRCT (residues 1–199), WT; assay: ITC of peptide binding to wild-type SLF1 tBRCT; details: 25 °C, 20 mM Tris pH 7.5, 200 mM NaCl; for Kd: 1.3 mM Rad18 peptide into 0.1 mM protein (BRCTide 6 mM into 0.2 mM), average ± SD of three independent repeats, ND = not detected
# Protocol: ITC experiments were carried out on a MicroCal ITC 200 instrument (Malvern) at 25 °C. Prior to the ITC experiments, SLF1^tBRCT was exchanged into a buffer containing 20 mM Tris (pH 7.5) and 200 mM sodium chloride and peptides (Sangon Biotech, Scilight biotechnology, Hefei Scierbio-Tech, Synpeptide) were dissolved in the same buffer. To characterize binding, a solution containing 1.3 mM Rad18 peptide or 6 mM BRCTide was injected into a 300-μl cell that stores 0.1 mM (for binding experiments with Rad18 peptides) or 0.2 mM (for the binding experiment with BRCTide) SLF1^tBRCT, 2 μl at a time. Data were analyzed with ORIGIN 7.0 (Originlab).
# [2] = molecular target: SLF1 tandem BRCT repeat (SLF1^tBRCT), residues 1-199, wild type (UniProt Q9BQI6); assay: ITC; MicroCal ITC 200, 25 °C, 20 mM Tris (pH 7.5), 200 mM sodium chloride; 1.3 mM Rad18 peptide or 6 mM BRCTide injected into 0.1 mM (Rad18 peptides) or 0.2 mM (BRCTide) SLF1^tBRCT in the cell; three independent repeats
# [3] = molecular target: T2, SLF1 tandem BRCT repeat (SLF1^tBRCT), …; assay: as above; details: both partners purified
# SLF1^tBRCT R50A = molecular target: T3, SLF1^tBRCT R50A; assay: as above; details: both partners purified
# SLF1^tBRCT K56A = molecular target: T4, SLF1^tBRCT K56A; assay: as above; details: both partners purified
# SLF1^tBRCT L142A = molecular target: T5, SLF1^tBRCT L142A; assay: as above; details: both partners purified
# SLF1^tBRCT I189A = molecular target: T6, SLF1^tBRCT I189A; assay: as above; details: both partners purified
molecule,measurement,setting,value
CC[C@H](C)[C@H](NC(=O)[C@H](CC(=O)O)NC(=O)[C@H](COP(=O)(O)O)NC(=O)[C@H](CO)NC(=O)[C@H](COP(=O)(O)O)NC(=O)[C@H](CO)NC(=O)[C@H](CC(N)=O)NC(=O)[C@H](CS)NC(=O)[C@H](CO)NC(=O)[C@H](CC(=O)O)NC(=O)[C@@H](N)CO)C(=O)N[C@H](C(=O)N[C@@H](CCCNC(=N)N)C(=O)N[C@@H](CC(=O)O)C(=O)N[C@@H](CC(C)C)C(=O)N[C@@H](CC(C)C)C(=O)N[C@@H](CCC(=O)O)C(=O)O)[C@@H](C)CC [Rad18-2P] (H-SDSCNS[pS]S[pS]DIIRDLLE-OH),Kd,[1],15 ± 3 nM
Rad18-NP: unphosphorylated Rad18 peptide of the Ser442/Ser444-containing region (SDSCNSSSSDIIRDLLE),binding to SLF1^tBRCT by ITC (in words),[1],undetectable
singularly phosphorylated Rad18-pS442 peptide (from UniProt Q9NS91 436-452),dH,[2],-1.79 kcal/mol
same,stoichiometry N,[2],1.13
Rad18-pS444 peptide (from UniProt Q9NS91 436-452),dH,[2],-1.1 kcal/mol
same,stoichiometry N,[2],1.28
CC[C@H](C)[C@H](NC(=O)[C@H](CC(=O)O)NC(=O)[C@H](COP(=O)(O)O)NC(=O)[C@H](CO)NC(=O)[C@H](CO)NC(=O)[C@H](CO)NC(=O)[C@H](CC(N)=O)NC(=O)[C@H](CS)NC(=O)[C@H](CO)NC(=O)[C@H](CC(=O)O)NC(=O)[C@@H](N)CO)C(=O)N[C@H](C(=O)N[C@@H](CCCNC(=N)N)C(=O)N[C@@H](CC(=O)O)C(=O)N[C@@H](CC(C)C)C(=O)N[C@@H](CC(C)C)C(=O)N[C@@H](CCC(=O)O)C(=O)O)[C@@H](C)CC [Rad18-pS444] (H-SDSCNSSS[pS]DIIRDLLE-OH),Kd,[1],19700 ± 6460 nM
CC[C@H](C)[C@H](NC(=O)[C@H](CC(=O)O)NC(=O)[C@H](CO)NC(=O)[C@H](CO)NC(=O)[C@H](COP(=O)(O)O)NC(=O)[C@H](CO)NC(=O)[C@H](CC(N)=O)NC(=O)[C@H](CS)NC(=O)[C@H](CO)NC(=O)[C@H](CC(=O)O)NC(=O)[C@@H](N)CO)C(=O)N[C@H](C(=O)N[C@@H](CCCNC(=N)N)C(=O)N[C@@H](CC(=O)O)C(=O)N[C@@H](CC(C)C)C(=O)N[C@@H](CC(C)C)C(=O)N[C@@H](CCC(=O)O)C(=O)O)[C@@H](C)CC [Rad18-pS442] (H-SDSCNS[pS]SSDIIRDLLE-OH),Kd,[1],156 ± 5 nM
Rad18-pS442-4A: Rad18-pS442 peptide with I446A/I447A/L450A/L451A substitutions (SDSCNS[pS]SSDAARDAAE),binding to SLF1^tBRCT by ITC (in words),[1],undetectable
Rad18-pS442-2IA: Rad18-pS442 peptide with I446A/I447A substitution (SDSCNS[pS]SSDAARDLLE),binding to SLF1^tBRCT by ITC (in words),[1],undetectable
"SDSCNS[pS]S[pS]DIIRALLE (peptide, UniProt Q9NS91 436-452, looked up, Rad18, human, residues 436-452, with D449A; source: synthetic peptide) [Rad18-2P-D449A peptide]",Kd,[3],77 nM
same,dH,[3],-1.11 kcal/mol
same,stoichiometry N,[3],1.52
"SDSCAS[pS]S[pS]DIIRDLLE (peptide, UniProt Q9NS91 436-452, looked up, Rad18, human, residues 436-452, with N440A; source: synthetic peptide) [Rad18-2P-N440A peptide]",Kd,[3],44 nM
same,dH,[3],-2.54 kcal/mol
same,stoichiometry N,[3],1.76
"SDSCNS[pS]S[pS]DIIADLLE (peptide, UniProt Q9NS91 436-452, looked up, Rad18, human, residues 436-452, with R448A; source: synthetic peptide) [Rad18-2P-R448A peptide]",Kd,[3],38 nM
same,dH,[3],-2.15 kcal/mol
same,stoichiometry N,[3],1.63
"SDSCNS[pS]S[pS]DIIRDLLE (peptide, UniProt Q9NS91 436-452, looked up, Rad18, human, Ser442/Ser444-containing region, residues 436-452; also called dually phosphorylated Rad18 peptide; source: synthetic peptide) [Rad18 peptide containing phosphorylated Ser442 and Ser444 (Rad18-2P)]",dH,[2],-4.04 kcal/mol
same,stoichiometry N,[2],1.28
same,Kd,SLF1^tBRCT R50A,160 nM
same,dH,SLF1^tBRCT R50A,-3.82 kcal/mol
same,stoichiometry N,SLF1^tBRCT R50A,1.45
same,Kd,SLF1^tBRCT K56A,2210 nM
same,dH,SLF1^tBRCT K56A,-0.86 kcal/mol
same,stoichiometry N,SLF1^tBRCT K56A,1.16
same,Kd,SLF1^tBRCT L142A,116 nM
same,dH,SLF1^tBRCT L142A,-5.07 kcal/mol
same,stoichiometry N,SLF1^tBRCT L142A,1.31
same,Kd,SLF1^tBRCT I189A,31 nM
same,dH,SLF1^tBRCT I189A,-2.98 kcal/mol
same,stoichiometry N,SLF1^tBRCT I189A,1.21
"GAAYDI[pS]QVFPFAKKK (source: synthetic peptide) [BRCTide, phosphopeptide optimized for binding to the BRCA1 tBRCT]",Kd,[3],27500 nM
same,dH,[3],-0.75 kcal/mol
same,stoichiometry N,[3],1.12
"SDSCNS[pS]SSDIIRDAAE (peptide, UniProt Q9NS91 436-452, looked up, Rad18, human, residues 436-452, with L450A/L451A; source: synthetic peptide) [Rad18-pS442-2LA peptide (L450A/L451A)]",Kd,[3],450 nM
same,dH,[3],-2.39 kcal/mol
same,stoichiometry N,[3],1.67
